Test results from patent US20070087986A1, “Compositions and methods for enhancing immunity by chemoattractant adjuvants” (priority 2004, published 2007).
Non-standard residues stand in square brackets, D forms with d. No end group written: not given here.

T1: FPRL1 (Homo sapiens, UniProt P25090)
T1 sequence (P25090 1-351): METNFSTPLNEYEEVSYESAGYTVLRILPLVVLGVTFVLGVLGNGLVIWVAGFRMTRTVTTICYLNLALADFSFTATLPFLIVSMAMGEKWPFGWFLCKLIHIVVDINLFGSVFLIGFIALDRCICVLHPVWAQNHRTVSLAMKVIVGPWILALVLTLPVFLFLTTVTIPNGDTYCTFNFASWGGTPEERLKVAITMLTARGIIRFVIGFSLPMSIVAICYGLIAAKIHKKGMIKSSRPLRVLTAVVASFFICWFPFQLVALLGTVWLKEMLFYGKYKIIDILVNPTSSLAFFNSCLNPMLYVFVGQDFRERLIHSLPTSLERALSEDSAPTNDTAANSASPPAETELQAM


Experiments:
Female BALB/C mice = format: in vivo; settings: for levels of antigen specific IgA antibodies: mucosal samples, day 21, intranasal rPA plus adjuvant; for levels of antigen specific IgG antibodies: serum, day 21, intranasal rPA 10 μg plus adjuvant, vs rPA alone
FPRL1 = biological target: T1, FPRL1; assay: FPRL1 activity of SHAAGtide and truncated and other variants; settings: in words: high, moderate, low
From the text: In addition to the agonists and antagonists shown in TABLE 4, SHAAGtide polypeptides were also shown to modulate FPRL1 activity. The term “SHAAGtide” includes SHAAGtide polypeptides (shown in TABLE 5), including isolated or purified SHAAGtide polypeptides, proteins or biologically active fragments separated from or recovered from a component of its natural environment; and polynucleotides shown in TABLE 6, truncated variants and other variants thereof, including naturally occurring allelic variants, derivatives and analogs. SHAAGtide polypeptides are derived from the alternatively spliced variant of CKβ8, namely CKβ8-1. CKβ8-1 is a 116 amino acid long polypeptide that includes the sequence of SHAAGtide polypeptides. […]

| Molecule | levels of antigen specific IgA antibodies (Female BALB/C mice) | levels of antigen specific IgG antibodies (Female BALB/C mice) | FPRL1 Activity (FPRL1) |
| --- | --- | --- | --- |
| 5′-TCCATGACGTTCCTGATGCT-3′ (chemistry not given here) [CpG, CpG oligonucleotide, ligand for TLR9, reference compound] | did not induce significant levels | did not induce significant levels | – |
| IGPQMTLSHAAG [CCXP4] | – | – | Low |
| LWRRKIGPQMTLSH [CCXP11] | – | – | Moderate |
| MLWRRKIGPQM [CCXP8] | – | – | Moderate |
| MLWRRKIGPQMT [CCXP5] | – | – | Moderate |
| MLWRRKIGPQMTLSH [CCXP3] | – | – | High |
| MLWRRKIGPQMTLSHAAG [CCXP1] | did not induce significant levels | did not induce significant levels | sequence high |
| MLWRRKIGPQMTLSHAAY [CCXP6] | – | – | high |
| RRKIGPQMTLSHAAG [CCXP2] | – | – | Low |
| Trp-Lys-Tyr-Met-Val-D-Met-CONH2 (WKYMV[dM]-NH2) [W-tide, WKYMV-(d-Met)-CONH2, synthetic hexapeptide ligand of FPRL1, reference compound] | did not induce significant levels | did not induce significant levels | – |
| WRRKIG [CCXP10] | – | – | Low activity |
| WRRKIGPQM [CCXP9] | – | – | Low activity |
| WRRKIGPQMTLSHAAG [CCXP7] | – | – | Low activity |
| mJE: chemokine mJE (SEQ ID NO: 60), used as chemoattractant adjuvant | did not induce significant levels | did not induce significant levels | – |
| mC5a: chemoattractant mC5a (SEQ ID NO: 62) (protein, listed as Homo sapiens) NLHLLRQKIEEQAAKYKHSVPKKCCYDGARVNFYETCEERVARVTIGPLCIRAFNECCTIANKIRKESPHKPVQLGR | did not induce significant levels | did not induce significant levels | – |
